Experimental data reported in JP2000169393A.

Target: 抗Fasモノクローナル抗体HFE7A(マウス−マウスハイブリドーマHFE7A、FERM BP−5828が産生)
Test: 200 µg peptide pre-incubated with 0.25 µg HFE7A, then flow cytometry on WR19L12a cells; D355-364 control set to 100 % fluorescence

HFE7AとWR19L12a細胞との結合の阻害(%) | Binder
60 % | KCRCKPNFFC [合成ペプチドP110]
50 % | EINCTRTQNT [合成ペプチドP100]
